Measured values reported in article PMC3152652.

Assays:
[1] = HEK 293 co-expression, Western blot of conditioned medium; conditions: glycan lost; control: wild type
[2] = HEK 293, Western blot densitometry, pro-BNP to BNP conversion; conditions: glycan lost; control: wild type

pro-BNP (pro-B-type natriuretic peptide): T71A
other: proteolytic processing [1]: increases
other: proteolytic processing [2]: increases
